Test results from patent US20210238260.
Substitutions are numbered along the chain they refer to. In names and notes the source's numbering stands. Several values for one entry are separate records, joined by “and”; a condition that tells them apart may be missing. Identical values can stand only once.

Columns and labels:
[1] = target: Factor X (FX) zymogen, active site titrated and DFP/EGR-cmk treated, P00742
[2] = target: plasma purified human AT-III (antithrombin III), in complex with full-length unfractionated heparin (UFH); experiment: ratio of K0.5 (lower-limit value) of the variant to K0.5 of Catalyst Biosciences WT FIXa, AT-III/UFH inhibition
[3] = target: T1, Antithrombin III (plasma purified human AT-III, Molecular Innovations); experiment: same assay; ratio to recombinant wild-type FIXa (Catalyst Biosciences WT)
[4] = target: Factor X, P00742
[5] = target: Factor X (FX), P00742
[6] = target: T1, Antithrombin III (plasma purified human …); experiment: AT-III/UFH inhibition: FIXa variant incubated with AT-III dilutions in excess unfractionated heparin, residual cleavage of Mesyl-D-CHG-Gly-Arg-AMC; K0.5 = AT-III concentration for 50% inhibition (IC50)
[7] = target: antithrombin III (plasma purified human AT-III), used as the AT-III/unfractionated heparin complex; experiment: K0.5 ratio to Catalyst Biosciences WT FIXa, AT-III/UFH inhibition assay
[8] = target: plasma purified human antithrombin III (AT-III), as complex with unfractionated heparin; experiment: ratio of K0.5 to Catalyst Biosciences WT FIXa, AT-III/UFH inhibition
[9] = target: plasma purified human AT-III (antithrombin III); experiment: AT-III/UFH inhibition K0.5, ratio to Catalyst Biosciences WT FIXa
[10] = target: plasma purified human antithrombin III (AT-III), in complex with unfractionated heparin (UFH); experiment: ratio of K0.5 for AT-III/UFH inhibition, variant over Catalyst Biosciences WT FIXa

Factor X (FX), P00742, sequence (P00742 whole entry, looked up): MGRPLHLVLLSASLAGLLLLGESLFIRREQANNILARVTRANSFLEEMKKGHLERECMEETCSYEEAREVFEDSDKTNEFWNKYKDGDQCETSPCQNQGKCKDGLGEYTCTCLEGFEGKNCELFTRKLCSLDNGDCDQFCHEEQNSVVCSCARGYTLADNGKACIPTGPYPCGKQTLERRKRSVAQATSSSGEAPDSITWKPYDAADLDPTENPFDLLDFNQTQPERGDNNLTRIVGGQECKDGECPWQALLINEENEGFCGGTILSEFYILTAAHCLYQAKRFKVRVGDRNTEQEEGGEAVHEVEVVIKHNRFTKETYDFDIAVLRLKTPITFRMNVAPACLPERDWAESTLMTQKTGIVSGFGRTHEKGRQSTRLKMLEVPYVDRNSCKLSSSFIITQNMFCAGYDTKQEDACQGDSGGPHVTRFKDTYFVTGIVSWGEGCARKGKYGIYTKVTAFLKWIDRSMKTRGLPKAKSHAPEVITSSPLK
Factor X (FX) zymogen, active site titrated and DFP/EGR-cmk treated, P00742, sequence (P00742 whole entry, looked up): as above
Factor X, P00742, sequence (P00742 whole entry, looked up): as above

B1: FIXa-R318Y/T343R/E410N (activated Factor IX variant, mature FIX numbering) (protein)
chain 1: YNSGKLEEFVQGNLERECMEEKCSFEEAREVFENTERTTEFWKQYVDGDQCESNPCLNGGSCKDDINSYECWCPFGFEGKNCELDVTCNIKNGRCEQFCKNSADNKVVCSCTEGYRLAENQKSCEPAVPFPCGRVSVSQTSKLTR
chain 2: VVGGEDAKPGQFPWQVVLNGKVDAFCGGSIVNEKWIVTAAHCVETGVKITVVAGEHNIEETEHTEQKRNVIRIIPHHNYNAAINKYNHDIALLELDEPLVLNSYVTPICIADKEYTNIFLKFGSGYVSGWGRVFHKGYSALVLQYLRVPLVDRATCLRSTKFRIYNNMFCAGFHEGGRDSCQGDSGGPHVTEVEGTSFLTGIISWGEECAMKGKYGIYTKVSRYVNWIKNKTKLT
[1]
  % of WT kcat/KM (against recombinant Catalyst Biosciences WT FIXa): 135%
  kcat/KM (catalytic activity for FX activation; Xase complex with FVIIIa, PC/PS vesicles and Ca2+; fluorogenic Spectrafluor FXa read-out): 6.2e+07 M⁻¹ s⁻¹

B2: FIXa variant R318Y/R338E/T343R/N346Y/R403E/E410N (mature FIX numbering) (protein)
chain 1: B1 chain 1
chain 2: B1 chain 2 with R158E, N166Y, R223E
[2]
  K0.5-mut/K0.5-wt: 517

B3: FIXa-D203N/F205T/R318Y (protein)
chain 1: B1 chain 1
chain 2: B1 chain 2 with D23N, F25T, R163T, N230E
[3]
  K0.5-mut/K0.5-wt: 374
[4]
  KM: 0.0475 µM
[5]
  % of WT kcat/KM: 45%
  kcat: 0.9 s⁻¹
  kcat/KM: 2e+07 M⁻¹ s⁻¹
[6]
  K0.5: 7230 nM
[7]
  K0.5-mut/K0.5-wt: 374 fold

B4: FIXa-R318Y/R338E/R403E/E410N (protein)
chain 1: B1 chain 1
chain 2: B1 chain 2 with R158E, R163T, R223E
[3]
  K0.5-mut/K0.5-wt: 304
[4]
  KM: 0.0455 µM
[5]
  catalytic activity (kcat/KM) for activation of FX: displayed some of the greatest increases in catalytic activity
  kcat: 5 s⁻¹ and 5.8 s⁻¹
[6]
  K0.5: 5880 nM
[7]
  K0.5-mut/K0.5-wt: 304 fold

B5: FIXa variant R318Y/R338E/N346Y/R403E/E410N (mature FIX numbering) (protein)
chain 1: B1 chain 1
chain 2: B1 chain 2 with R158E, R163T, N166Y, R223E
[2]
  K0.5-mut/K0.5-wt: 517

B6: FIXa-D203N/F205T/K228N (protein)
chain 1: B1 chain 1
chain 2: B1 chain 2 with D23N, F25T, K48N, Y138R, R163T, N230E
[3]
  K0.5-mut/K0.5-wt: 42.5
[4]
  KM: 0.0399 µM
[5]
  % of WT kcat/KM: 31%
  kcat: 0.6 s⁻¹
  kcat/KM: 1.4e+07 M⁻¹ s⁻¹
[6]
  K0.5: 822 nM
[7]
  K0.5-mut/K0.5-wt: 42.5 fold

B7: FIXa-R338E/R403E/E410N (protein)
chain 1: B1 chain 1
chain 2: B1 chain 2 with Y138R, R158E, R163T, R223E
[3]
  K0.5-mut/K0.5-wt: 122
[4]
  KM: 0.0455 µM
[6]
  K0.5: 2350 nM
[7]
  K0.5-mut/K0.5-wt: 122 fold

B8: FIXa-R318Y/R338E/E410N (protein)
chain 1: B1 chain 1
chain 2: B1 chain 2 with R158E, R163T
[3]
  K0.5-mut/K0.5-wt: 179
[4]
  KM: 0.0142 µM
[6]
  K0.5: 3460 nM
[7]
  K0.5-mut/K0.5-wt: 179 fold

B9: FIXa-Y155F/N260S/R318Y/R338E/R403E/E410N (protein)
chain 1: B1 chain 1
chain 2: B1 chain 2 with N80S, R158E, R163T, R223E
[8]
  K0.5-mut/K0.5-wt: 501
[9]
  K0.5-mut/K0.5-wt: 501
[4]
  % of WT kcat/KM: 156%
  kcat: 5.8 s⁻¹
  kcat/KM: 7e+07 M⁻¹ s⁻¹
[5]
  KM: 0.0839 µM
  kcat of FX activation by FIXa (Xase complex with FVIIIa, PC/PS vesicles, Ca2+): 5.8 s⁻¹

B10: FIXa-K228N/R318Y/E410N (protein)
chain 1: B1 chain 1
chain 2: B1 chain 2 with K48N, R163T
[3]
  K0.5-mut/K0.5-wt: 24.6
[4]
  KM: 0.042 µM
[5]
  kcat: 5 s⁻¹
[6]
  K0.5: 475 nM
[7]
  K0.5-mut/K0.5-wt: 24.6 fold

B11: FIXa-D203N/F205T/R338A (protein)
chain 1: B1 chain 1
chain 2: B1 chain 2 with D23N, F25T, Y138R, R158A, R163T, N230E
[3]
  K0.5-mut/K0.5-wt: 21.9
[4]
  KM: 0.0385 µM
[5]
  % of WT kcat/KM: 139%
  kcat: 2.3 s⁻¹
  kcat/KM: 6.2e+07 M⁻¹ s⁻¹
[6]
  K0.5: 423 nM
[7]
  K0.5-mut/K0.5-wt: 21.9 fold

B12: FIXa-K228N/K247N/N249S/R318Y/R338E/T343R/R403E (activated Factor IX variant, mature FIX numbering) (protein)
chain 1: B1 chain 1
chain 2: B1 chain 2 with K48N, K67N, N69S, R158E, R223E, N230E
[1]
  % of WT kcat/KM (against recombinant Catalyst Biosciences WT FIXa): 636%
  kcat/KM (catalytic activity for FX activation; Xase complex with FVIIIa, PC/PS vesicles and Ca2+; fluorogenic Spectrafluor FXa read-out): 2.9e+08 M⁻¹ s⁻¹

B13: FIXa variant R318Y/R338E/Y345A/R403E/E410N (mature FIX numbering) (protein)
chain 1: B1 chain 1
chain 2: B1 chain 2 with R158E, R163T, Y165A, R223E
[2]
  K0.5-mut/K0.5-wt: 517

B14: FIXa-D203N/F205T/R338E/R403E (protein)
chain 1: B1 chain 1
chain 2: B1 chain 2 with D23N, F25T, Y138R, R158E, R163T, R223E, N230E
[3]
  K0.5-mut/K0.5-wt: 78.6
[4]
  KM: 0.0511 µM
[5]
  % of WT kcat/KM: 42%
  kcat: 0.9 s⁻¹
  kcat/KM: 1.9e+07 M⁻¹ s⁻¹
[6]
  K0.5: 1520 nM
[7]
  K0.5-mut/K0.5-wt: 78.6 fold

B15: FIXa variant R318Y/R338E/Y345A/N346D/R403E/E410N (mature FIX numbering) (protein)
chain 1: B1 chain 1
chain 2: B1 chain 2 with R158E, R163T, Y165A, N166D, R223E
[2]
  K0.5-mut/K0.5-wt: 517

B16: FIXa-K228N/K247N/N249S/R318Y/R338E/T343R/E410N (activated Factor IX variant, mature FIX numbering) (protein)
chain 1: B1 chain 1
chain 2: B1 chain 2 with K48N, K67N, N69S, R158E
[1]
  % of WT kcat/KM (against recombinant Catalyst Biosciences WT FIXa): 278%
  kcat/KM (catalytic activity for FX activation; Xase complex with FVIIIa, PC/PS vesicles and Ca2+; fluorogenic Spectrafluor FXa read-out): 1.3e+08 M⁻¹ s⁻¹

B17: FIXa variant R318Y/R338E/T343R/N346D/R403E/E410N (mature FIX numbering) (protein)
chain 1: B1 chain 1
chain 2: B1 chain 2 with R158E, N166D, R223E
[2]
  K0.5-mut/K0.5-wt: 517

B18: FIXa-Y155F/R318Y/R338E/E410N (protein)
chain 1: B1 chain 1
chain 2: B1 chain 2 with R158E, R163T
[3]
  K0.5-mut/K0.5-wt: 56.8
[4]
  KM: 0.016 µM
[5]
  kcat: 5.6 s⁻¹
[6]
  K0.5: 1100 nM
[7]
  K0.5-mut/K0.5-wt: 56.8 fold

B19: FIXa-D203N/F205T/E410N (protein)
chain 1: B1 chain 1
chain 2: B1 chain 2 with D23N, F25T, Y138R, R163T
[3]
  K0.5-mut/K0.5-wt: 19.5
[4]
  KM: 0.0455 µM
[5]
  % of WT kcat/KM: 94%
  kcat: 1.7 s⁻¹
  kcat/KM: 4.2e+07 M⁻¹ s⁻¹
[6]
  K0.5: 377 nM
[7]
  K0.5-mut/K0.5-wt: 19.5 fold

B20: FIXa-R318Y/R403E/E410N (protein)
chain 1: B1 chain 1
chain 2: B1 chain 2 with R163T, R223E
[3]
  K0.5-mut/K0.5-wt: 366
[4]
  KM: 0.0883 µM
[5]
  kcat: 2.3 s⁻¹
[6]
  K0.5: 7070 nM
[7]
  K0.5-mut/K0.5-wt: 366 fold

B21: FIXa-K228N/R338E/R403E (protein)
chain 1: B1 chain 1
chain 2: B1 chain 2 with K48N, Y138R, R158E, R163T, R223E, N230E
[3]
  K0.5-mut/K0.5-wt: 86.8
[4]
  KM: 0.0592 µM
[6]
  K0.5: 1680 nM
[7]
  K0.5-mut/K0.5-wt: 86.8 fold

B22: FIXa-D203N/F205T/R338E (protein)
chain 1: B1 chain 1
chain 2: B1 chain 2 with D23N, F25T, Y138R, R158E, R163T, N230E
[3]
  K0.5-mut/K0.5-wt: 60.5
[4]
  KM: 0.0241 µM
[5]
  % of WT kcat/KM: 234%
  kcat: 2.5 s⁻¹
  kcat/KM: 1e+08 M⁻¹ s⁻¹
[6]
  K0.5: 1170 nM
[7]
  K0.5-mut/K0.5-wt: 60.5 fold

B23: FIXa-K228N/R318Y/R338E/T343R/R403E/E410N (activated Factor IX variant, mature FIX numbering) (protein)
chain 1: B1 chain 1
chain 2: B1 chain 2 with K48N, R158E, R223E
[1]
  % of WT kcat/KM (against recombinant Catalyst Biosciences WT FIXa): 593%
  kcat/KM (catalytic activity for FX activation; Xase complex with FVIIIa, PC/PS vesicles and Ca2+; fluorogenic Spectrafluor FXa read-out): 2.7e+08 M⁻¹ s⁻¹

B24: FIXa-K228N/K247N/N249S/R318Y/T343R/R403E/E410N (activated Factor IX variant, mature FIX numbering) (protein)
chain 1: B1 chain 1
chain 2: B1 chain 2 with K48N, K67N, N69S, R223E
[1]
  % of WT kcat/KM (against recombinant Catalyst Biosciences WT FIXa): 153%
  kcat/KM (catalytic activity for FX activation; Xase complex with FVIIIa, PC/PS vesicles and Ca2+; fluorogenic Spectrafluor FXa read-out): 7.1e+07 M⁻¹ s⁻¹

B25: FIXa variant R318Y/R338E/T343R/R403E/E410N (mature FIX numbering) (protein)
chain 1: B1 chain 1
chain 2: B1 chain 2 with R158E, R223E
[2]
  K0.5-mut/K0.5-wt: 517

B26: FIXa-Y155F/K247N/N249S/N260S (protein)
chain 1: B1 chain 1
chain 2: B1 chain 2 with K67N, N69S, N80S, Y138R, R163T, N230E
[10]
  K0.5-mut/K0.5-wt: 7.9 fold
[4]
  % of WT kcat/KM: 43%
  kcat: 1.8 s⁻¹
  kcat/KM: 1.9e+07 M⁻¹ s⁻¹
[5]
  KM: 0.0965 µM
  kcat of FX activation by FIXa (Xase complex with FVIIIa, PC/PS vesicles, Ca2+): 1.8 s⁻¹

B27: FIXa-K247N/N249S/N260S (protein)
chain 1: B1 chain 1
chain 2: B1 chain 2 with K67N, N69S, N80S, Y138R, R163T, N230E
[10]
  K0.5-mut/K0.5-wt: 8.1 fold
[5]
  KM: 0.114 µM
  kcat of FX activation by FIXa (Xase complex with FVIIIa, PC/PS vesicles, Ca2+): 3.3 s⁻¹

B28: FIXa-D104N/K106S/R318Y/R338E/E410N (protein)
chain 1: B1 chain 1 with D104N, K106S
chain 2: B1 chain 2 with R158E, R163T
[3]
  K0.5-mut/K0.5-wt: 327
[4]
  KM: 0.0189 µM
[5]
  kcat: 4.8 s⁻¹
[6]
  K0.5: 6330 nM
[7]
  K0.5-mut/K0.5-wt: 327 fold
